Among the data in patent US20210206880A1 are apparent potency shift for epinephrine: IC50 for β2AR-wt alone divided by IC50^high in the presence of MbNb80^cHopQ ([3H]-DHA competition) (fold (IC50 ratio)) and apparent potency shift for isoprotenerol: IC50 for β2AR-wt divided by IC50^high in the presence of MbNb80^cHopQ ([3H]-DHA competition) (fold (IC50 ratio)) values, retold here.

This assay deals with human β2 adrenergic receptor, wild type (human) (UniProt P07550). Put plainly: cell-based or functional assay.

With MbNb80^cHopQ (designed binder), the apparent potency shift for epinephrine: IC50 for β2AR-wt alone divided by IC50^high in the presence of MbNb80^cHopQ ([3H]-DHA competition) (fold (IC50 ratio)) was 2000 and the apparent potency shift for isoprotenerol: IC50 for β2AR-wt divided by IC50^high in the presence of MbNb80^cHopQ ([3H]-DHA competition) (fold (IC50 ratio)) came out at 2000.
